Experimental data taken from publication PMC9061721 (2022).

Columns and labels:
[1] = biological target: A/Hong Kong/01/1968 (H3N2) HA (influenza A virus A/Hong Kong/01/1968 …, UniProt Q91MA7); assay: ELISA
[2] = biological target: SC/09 H1N1 HA protein (A/Sichuan/01/2009) (influenza A virus A/Sichuan/01/2009 …); assay: ELISA

B1: 28-12 (antibody, V domains shown)
VH: EVQLVESGGGLVQPGGSLRLSCAASGFTFSTYNMNWVRQAPGKGLEWLSYISTSSNTIYYADSVKGRFTISRDNAKNSLFLQMNSLRDEDTAVYYCARDRGCSSTNCYVVGYYFYGMDVWGQGTTVTVSS
VL: DIQMTQSPSSVSASVGDRVTITCRASQGISSYLAWYQLKPGRAPKLLIYGATRLQSGVPSRFSGSGSGTDFTLTISGLQPEDFATYHCQQADSFPLTFGQGTRLEIK
EC50 [1]: 0.0754 µg/mL | EC50 [2]: 0.0647 µg/mL
